B1: INTS3 (parent)
chain: FHPIKETVVEEPVDITPYLDQLDE

Variants of: B1
Assay: protein stability index of a GFP-peptide fusion (GPS, HEK-293T) (PSI 1-6); higher = more stable
Conditions: c terminus: a fixed tail appended
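Further: lentivirally expressed fusions sorted by FACS into six bins by GFP to DsRed ratio, PSI derived from sequencing read proportions per bin multiplied by bin number.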

Protein stability index: each site, then its substitutions
T16: V 3.14; Q 3.79; Y 2.77; P 3; F 3.2; N 3.18; R 2.84; S 3.32; H 2.79; M 3.73; I 3.41; C 3.09; L 3.05; A 3.91; E 3.75; G 3.44; K 3.45; D 3.79; W 2.33
T7: G 4.18; F 2.32; R 3.04; E 4.19; K 2.91; Y 2.88; W 2.89; V 3.12; I 3.06; C 2.66; M 3.55; P 3.31; A 3.73; N 3.55; D 3.85; L 2.7; S 3.57; H 3.35; Q 3.26
D14: F 1.93; P 3.09; N 3.04; W 1.63; M 2.14; Y 2.11; H 3.11; T 3.18; S 2.75; K 3.13; Q 2.91; E 3.18; G 2.42; C 3.12; V 2.73; R 2.62; L 2.91; A 3.05; I 2.9
P12: V 3.06; A 2.99; R 3.01; L 3.1; G 3.58; Q 3.52; S 3.31; T 3.18; H 3.29; K 3.04; F 3.65; D 3.52; W 2.79; E 3.52; I 2.93; C 3.03; M 2.65; Y 2.81; N 3.57
L19: V 4.03; K 3.24; N 3.66; H 3.18; D 3.24; T 3.31; C 3.21; G 3.32; F 3.02; P 3.88; Y 3.2; A 3.21; R 3.14; Q 2.72; E 4.34; W 2.56; M 2.86; I 3.12; S 3.98
L22: H 3.5; M 2.57; P 3.61; Y 3.16; F 3.03; R 3.71; K 3.7; W 2.73; G 3.41; Q 4.11; T 3.38; I 3.83; C 3.82; E 3.68; N 3.85; D 3.62; A 3.9; V 3.41; S 3.13
V13: L 3.22; P 2.43; T 3.8; W 2.92; K 3.05; H 3.32; M 3; R 2.58; Y 3.2; E 3.34; A 3.61; S 3.67; D 3.83; N 3.42; C 3.08; G 3.27; Q 3.25; F 3.05; I 3.4
D23: I 2.06; C 2.48; F 2.28; G 2.59; E 3.29; H 2.66; A 2.35
K5: T 4.29; S 4.99; W 2.15; V 4.17; Y 2.83
Y18: A 3.58; C 3.47; D 3.43; S 3.77; L 3.88; Q 3.95; M 3.58; K 3.77; V 3.87; W 3.11; H 3.5; T 3.71; E 3.36; G 3.69; N 3.72; R 3.58; I 2.7; P 3.23; F 3.79
E6: V 1.87; T 3.28; K 2.34; M 2; C 1.78; G 3.04; Q 2.1; R 1.98; L 1.9; P 2.89; D 3.77; I 1.57; A 2.42; N 2.67; H 2.01; S 2.52; Y 1.75; F 1.53; W 1.91
V9: P 3.62; H 3.05; Y 2.97; G 3.93; M 3.69; L 3.19; D 3.62; N 3.81; K 3.3; A 3.72; C 2.89; W 2; I 3.04; Q 3.77; E 4.25; T 3.22; R 3.08; F 2.65; S 3.25
D20: A 3.11; C 2.49; R 2.96; Q 2.41; P 2; M 2.02; N 2.94; V 2.11; S 3.3; Y 2.08; I 2.35; W 2.14; L 2.28; E 3.48; H 3; T 2.94; F 2.41; K 2.78; G 2.99
Q21: N 3.06; V 4.05; D 3.51; W 2.26; L 3.05; T 3.19; Y 2.5; P 3.15; S 2.82; C 2.55; H 3.26; G 3.56; F 2.55; I 3.26; M 3.42; R 2.71; K 3.05; E 3.62; A 3.73
P17: A 3.25; D 3.58; K 2.88; Q 3.52; S 3.12; V 3.21; L 2.92; M 3.17; G 3.46; C 3.17; N 3.19; W 3.61; E 3.89; R 2.39; I 2.49; F 3.08; H 3.63; Y 3.75; T 2.94
E10: N 2.59; L 2.69; V 2.12; C 2.19; I 2.08; F 1.54; T 2.56; R 2.1; D 3.24; Q 2.99; Y 1.8; G 2.8; P 2.98; A 2.39; M 2.16; H 2.56; K 1.84; S 2.54
E11: C 2.78; L 2.76; V 2.79; G 3.19; I 1.77; P 2.95; A 2.73; N 2.98; R 2.49; T 2.54; F 1.92; S 2.81; Q 3.53; H 2.87; D 3.15; K 3.02; M 2.93; W 2.11; Y 2.51
V8: S 3.38; A 3.87; F 2.73; G 3.91; E 4.18; Q 4.21; H 3.19; I 2.88; W 2.54; M 2.95; K 3.49; R 3.03; D 3.9; Y 3.06; C 3.76; P 3.73; L 3.56; T 3.53; N 3.59
I15: R 4.13; Y 3.3; C 3.49; K 3.86; G 3.23; S 2.92; D 4.18; T 4.26; N 2.32; A 3.43; P 3.53; W 2.39; F 2.4; V 3.98; E 4.59; H 3.03; M 2.86; Q 3.79; L 3.25
